CMC decomposition activity data for 1 protein are collected here from patent US20110250668.

The series concerns the target CBD-cohesin from C. thermocellum displayed on the yeast cell surface (CtCBDcoh yeast), P32781.

Sequence of CBD-cohesin from C. thermocellum displayed on the yeast cell surface (CtCBDcoh yeast), P32781 (P32781 whole entry, looked up): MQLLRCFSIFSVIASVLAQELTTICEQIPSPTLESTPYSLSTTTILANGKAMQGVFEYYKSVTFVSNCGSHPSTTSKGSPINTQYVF

B1: Cel8A cellulase spliced to the Cel48S dockerin with aspartic acid substituted for the No. 18 and No. 50 asparagines, His-tagged (CtCBDcohCel8A48SdocN-D yeast) (protein)
chain: AGVPFNTKYPYGPTSIADNQSEVTAMLKAEWEDWKSKRITSNGAGGYKRVQRDASTNYDTVSEGMGYGLLLAVCFNEQALFDDLYRYVKSHFNGNGLMHWHIDANNNVTSHDGGDGAATDADEDIALALIFADKLWGSSGAINYGQEARTLINNLYNHCVEHGSYVLKPGDRWGGSSVTNPSYFAPAWYKVYAQYTGDTRWNQVADKCYQIVEEVKKYNNGTGLVPDWCTASGTPASGQSYDYKYDATRYGWRTAVDYSWFGDQRAKANCDMLTKFFARDGAKGIVDGYTIQGSKISNNHNASFIGPVAAASMTGYDLNFAKELYRETVAVKDSEYYGYYGNSLRLLTLLYITGNFPNPLSDLSGQPTPPSNPTPSLPPQVVYGPSSGTPSTKLYGDVNDDGKVDSTDAVALKRYVLRSGISINTDNADLNEDGRVDSTDLGILKRYILKEIDTLPYKN
Consider B1, for which the CMC decomposition activity result is “CMC decomposition activity was increased by amino acid substitution (FIG. 11), indicating improved saccharification ability of the yeast”.
